From patent US20260049103A1, “PEPTIDE, AND COMPOSITION THEREOF AND USE THEREOF” (WINKEY TECHNOLOGY USA INC, priority 2023, published 2026)

Tested on: Human keratinocytes (HaCaT)
Assay: Cell scratch assay
Type: cell-based
Settings: 24 h after scratch, peptides 12.5 ppm, EGF 50 U/mL, compared with blank control, FIG. 8
Procedure: Human keratinocytes (HaCaT) were purchased from the Kunming Cell Bank of China Center for Type Culture Collection under the Chinese Academy of Sciences.
Polypeptide group: Peptide (13) and peptide (20). The test concentrations of all the above samples were 12.5 ppm.
Blank control group: PBS.
Positive control group: 50 U/mL of EGF.
A bottle of HaCaT cells in good exponential growth phase was taken. A 0.25% trypsin digestion solution was added so that digestion allowed the adherent cells to fall off, counting 1 to 4×10^5 cells/mL, which were prepared into a cell suspension.
The cells were inoculated into a 24-well plate at a density of 150,000 cells/well, with 2 mL cell suspension per well. After the cells attached to the wall and grew to 100% confluence, the culture medium was replaced with a medium containing 0.5%-1% fetal bovine serum to maintain the cells for 24 h for synchronization. A sterilized pipette tip was used to scratch a wound, the detached cells were washed off with PBS, and the samples to be tested were added. The incubation was continued in the 5% CO2 incubator at 37° C., and the migration of cells was observed under an optical microscope after 24 h.
The scratch migration experiment of cells can reflect the proliferation and repair ability of cells. […]

B1: EGF: positive control group: 50 U/mL of EGF in the cell scratch assay (protein, UniProt P01133 23-1207, looked up)
Pro-epidermal growth factor: PQHWSCPEGTLAGNGNSTCVGPAPFLIFSHGNSIFRIDTEGTNYEQLVVDAGVSVIMDFHYNEKRIYWVDLERQLLQRVFLNGSRQERVCNIEKNVSGMAINWINEEVIWSNQQEGIITVTDMKGNNSHILLSALKYPANVAVDPVERFIFWSSEVAGSLYRADLDGVGVKALLETSEKITAVSLDVLDKRLFWIQYNREGSNSLICSCDYDGGSVHISKHPTQHNLFAMSLFGDRIFYSTWKMKTIWIANKHTGKDMVRINLHSSFVPLGELKVVHPLAQPKAEDDTWEPEQKLCKLRKGNCSSTVCGQDLQSHLCMCAEGYALSRDRKYCEDVNECAFWNHGCTLGCKNTPGSYYCTCPVGFVLLPDGKRCHQLVSCPRNVSECSHDCVLTSEGPLCFCPEGSVLERDGKTCSGCSSPDNGGCSQLCVPLSPVSWECDCFPGYDLQLDEKSCAASGPQPFLLFANSQDIRHMHFDGTDYGTLLSQQMGMVYALDHDPVENKIYFAHTALKWIERANMDGSQRERLIEEGVDVPEGLAVDWIGRRFYWTDRGKSLIGRSDLNGKRSKIITKENISQPRGIAVHPMAKRLFWTDTGINPRIESSSLQGLGRLVIASSDLIWPSGITIDFLTDKLYWCDAKQSVIEMANLDGSKRRRLTQNDVGHPFAVAVFEDYVWFSDWAMPSVMRVNKRTGKDRVRLQGSMLKPSSLVVVHPLAKPGADPCLYQNGGCEHICKKRLGTAWCSCREGFMKASDGKTCLALDGHQLLAGGEVDLKNQVTPLDILSKTRVSEDNITESQHMLVAEIMVSDQDDCAPVGCSMYARCISEGEDATCQCLKGFAGDGKLCSDIDECEMGVPVCPPASSKCINTEGGYVCRCSEGYQGDGIHCLDIDECQLGEHSCGENASCTNTEGGYTCMCAGRLSEPGLICPDSTPPPHLREDDHHYSVRNSDSECPLSHDGYCLHDGVCMYIEALDKYACNCVVGYIGERCQYRDLKWWELRHAGHGQQQKVIVVAVCVVVLVMLLLLSLWGAHYYRTQKLLSKNPKNPYEESSRDVRSRRPADTEDGMSSCPQPWFVVIKEHQDLKNGGQPVAGEDGQAADGSMQPTSWRQEPQLCGMGTEQGCWIPVSSDKGSCPQVMERSFHMPSYGTQTLEGGVEKPHSLLSANPLWQQRALDPPHQMELTQ
modifications: Pro-epidermal growth factor
notes: positive control group: 50 U/mL of EGF in the cell scratch assay
In the case of B1, the “cell proliferation and migration (scratch spacing)” value is reported as “obvious cell proliferation and migration”.
